In patent publication US12123009B2, “Methods and compositions for PPO herbicide tolerance in plants” (Monsanto Technology LLC, priority 2015, dated 2024):

What was measured:
[1] = target: Maize (Zea mays) protoporphyrinogen oxidase (PPO), wild type; assay: PPO enzyme assay (plastid extract); type: biochemical; conditions: 3 μM protogen; pH 7.4, 30° C.; read-out: S-3100 IC50
[2] = tested on: leaf discs of soybean, non-transgenic or expressing H_N10 (SEQ ID NO: 4); assay: Leaf disc assay, soybean; type: in vivo; conditions: 1 micromolar
Method: A leaf-disc assay was employed for rapid and minimally damaging assessment of herbicide tolerance in transgenic plants expressing a recombinant PPO enzyme. Leaf tissue was sampled from the youngest fully-green leaf of corn and soybean plants. Five 4-mm diameter leaf discs were cut from the leaf samples using a disposable biopsy punch with a plunger (Integra® Miltex®, Inc., York. Pennsylvania) and the leaf discs were placed into one ml of incubation solution (1 mM MES, pH 6.5, 1% w/v sucrose, 1% (v/v) acetone) in 24-well polystyrene plates with lids. For herbicide tolerance analysis, S-3100 was added to the incubation solution to a final concentration of 1 micromolar. Vacuum infiltration was applied and plates of leaf discs were incubated in continuous darkness for one day at room temperature (23-24° C.) followed by one (soybean) or two (corn) days continuous light incubation under overhead fluorescent and incandescent bulbs (520 uE) at 26-27° C. Leaf disc injury was then scored visually on a scale from 0 (lowest injury) to 4 (highest injury), with lower scores indicating better tolerance to the PPO herbicide.

transgenic maize plants = assay: R0 transgenic maize 40 g/ha S-3100 spray test; type: in vivo
From the text: H_N60 (SEQ ID NO:3). […] These five constructs had the same promoter plus leader plus intron combination, with two different targeting peptide (TP) sequences, and the same 3′UTR sequence. Leaf samples were taken from the R0 plants and analyzed by PCR to determine the transgene copy number. Single copy plants for up to 12 unique events per construct were transplanted to pots, selfed and outcrossed to generate R1 and F1 seed, respectively, for future testing. Multi-copy plants and extra single copy plants were sprayed with 40 grams/ha 5-3100 at approximately the V5 growth stage and injury ratings were taken 7 days after treatment. The average percent (%) injury for all plants expressing each PPO enzyme and the number of plants that were deemed highly tolerant (less than 10% injury) was noted, where each plant is a unique single or multi-copy transformant.

R0 soybean plants = assay: R0 transgenic soybean herbicide tolerance at eleven weeks; type: in vivo; conditions: R0 plants sprayed with S-3100 at eleven weeks, rated seven days after treatment
Method: The plantlets in the non-sprayed containers corresponding to constructs having a score of 2 were transplanted at approximately 7 weeks post transformation and grown as R0 plants using standard methods known in the art. Plantlets corresponding to non-tolerant scores of 0 and 1 were also grown to serve as negative controls. The R0 plants were grown in a greenhouse under long-day nursery conditions (18 hr light at 80° F. then 6 hr dark at 74° F.) for approximately four weeks. At eleven weeks, the R0 plants were sprayed with two passes of the same herbicide solution (0.3 g of 5-3100) described above. Herbicide injury ratings were collected seven days after treatment.
The results of the herbicide tolerance application at eleven weeks to the R0 plants confirmed the low percent injury rating scores observed in the high-throughput screen at five weeks. Any injury rating of 30% or above was equivalent to non-transgenic soybean injury ratings. A few of the constructs stood out as providing very good tolerance to the herbicide application. […] Data are provided in Table 10, where n.d. indicates the analysis was not conducted.

[3] = 40 grams/ha S-3100 at V5, 7 days after treatment, R0 plants

Q: Which results are given for `CCOC(=O)COc1ncccc1Oc1cc(-n2c(=O)cc(C(F)(F)F)n(C)c2=O)c(F)cc1Cl` [S-3100, ethyl [3-2-chloro-4-fluoro-5-(1-methyl-6-trifluoromethyl-2,4-dioxo-1,2,3,4-tetrahydropyrimidin-3-yl)phenoxy]-2-pyridyloxylacetate]?
A: IC50 [1]: 3 nM; leaf disc injury rating (0 lowest to 4 highest injury) ([2]; H_N10, construct 1): zero; leaf disc injury rating (0 lowest to 4 highest injury) ([2]; H_N10, construct 11): 1.6; leaf disc injury rating (0 lowest to 4 highest injury) ([2]; non-transgenic): 2.6

B1: H_N90: microbial HemG protoporphyrinogen oxidase, SEQ ID NO:1 (SEQ ID NO:11 lacking start methionine; variants 18, 19) (protein, listed as Enterobacter cloacae)
chain: MKALVLYSTRDGQTHAIASYIASCMKEKAECDVIDLTHGEHVNLTQYDQVLIGASIRYGHFNAVLDKFIKRNVDQLNNMPSAFFCVNLTARKPEKRTPQTNPYVRKFLLATPWQPALCGVFAGALRYPRYRWIDKVMIQLIMRMTGGETDTSKEVEYTDWEQVKKFAEDFAKLSYKKAL
Q: B1 was tested. Which “Average Injury” value (transgenic maize plants; [3]) did it give?
A: 31.4%

Q: And the “Highly Tolerant (number of plants with less than 10% injury)” value (transgenic maize plants; [3])?
A: 44

Q: What about the “injury rates when expressed in transgenic plants (crop tolerance to a PPO herbicide)” value (transgenic maize plants; R0 transgenic maize data) of the same molecule?
A: reduced injury rates

Q: What about the percent injury score (R0 soybean plants; TP1) of the same molecule?
A: 3%

Q: And the percent injury score (R0 soybean plants; TP9)?
A: 30%

Q: And the percent injury score (R0 soybean plants; TP10)?
A: 30%

Q: What about the percent injury score (R0 soybean plants; TP11) of the same molecule?
A: 30%

Q: And the percent injury score (R0 soybean plants; TP12)?
A: 30%

Q: And the percent injury score (R0 soybean plants; TP13)?
A: 15%

Q: And the percent injury score (R0 soybean plants; TP14)?
A: 25%

Q: And the percent injury score (R0 soybean plants; TP15)?
A: 35%

Q: What about the percent injury score (R0 soybean plants; TP16) of the same molecule?
A: 35%

Q: What about the percent injury score (R0 soybean plants; TP17) of the same molecule?
A: 15%

Q: And the percent injury score (R0 soybean plants; TP18)?
A: 30%

Q: What about the percent injury score (R0 soybean plants; TP20) of the same molecule?
A: 5%

Q: What about the percent injury score (R0 soybean plants; TP21) of the same molecule?
A: 25%

Q: What about the percent injury score (R0 soybean plants; TP22) of the same molecule?
A: 30%

Q: What about the percent injury score (R0 soybean plants; TP23) of the same molecule?
A: 30%

Q: And the percent injury score (R0 soybean plants; TP26)?
A: 40%

Q: What about the percent injury score (R0 soybean plants; TP27) of the same molecule?
A: 35%

Q: And the percent injury score (R0 soybean plants; TP28)?
A: 30%

Q: And the percent injury score (R0 soybean plants; TP32)?
A: 50%

Q: And the percent injury score (R0 soybean plants; TP33)?
A: 25%

Q: And the percent injury score (R0 soybean plants; TP34)?
A: 35%

Q: And the percent injury score (R0 soybean plants; TP35)?
A: 15%

Q: What about the percent injury score (R0 soybean plants; TP36) of the same molecule?
A: 15%
